Earlier results, collected in PMC8687316.

Biological target: p53 (Homo sapiens) (UniProt P04637)
Sequence (P04637 whole entry): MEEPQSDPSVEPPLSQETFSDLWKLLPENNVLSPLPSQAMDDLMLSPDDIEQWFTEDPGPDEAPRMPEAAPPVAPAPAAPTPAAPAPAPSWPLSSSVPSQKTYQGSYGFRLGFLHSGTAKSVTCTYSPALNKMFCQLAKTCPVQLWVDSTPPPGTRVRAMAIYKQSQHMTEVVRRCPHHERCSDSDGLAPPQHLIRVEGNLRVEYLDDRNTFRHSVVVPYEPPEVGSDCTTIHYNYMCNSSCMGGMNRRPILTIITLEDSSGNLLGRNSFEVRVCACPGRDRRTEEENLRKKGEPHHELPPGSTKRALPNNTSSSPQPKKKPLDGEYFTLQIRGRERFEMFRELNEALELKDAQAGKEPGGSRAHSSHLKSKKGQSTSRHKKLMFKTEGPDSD

Mdm2, sequence (Q00987 whole entry): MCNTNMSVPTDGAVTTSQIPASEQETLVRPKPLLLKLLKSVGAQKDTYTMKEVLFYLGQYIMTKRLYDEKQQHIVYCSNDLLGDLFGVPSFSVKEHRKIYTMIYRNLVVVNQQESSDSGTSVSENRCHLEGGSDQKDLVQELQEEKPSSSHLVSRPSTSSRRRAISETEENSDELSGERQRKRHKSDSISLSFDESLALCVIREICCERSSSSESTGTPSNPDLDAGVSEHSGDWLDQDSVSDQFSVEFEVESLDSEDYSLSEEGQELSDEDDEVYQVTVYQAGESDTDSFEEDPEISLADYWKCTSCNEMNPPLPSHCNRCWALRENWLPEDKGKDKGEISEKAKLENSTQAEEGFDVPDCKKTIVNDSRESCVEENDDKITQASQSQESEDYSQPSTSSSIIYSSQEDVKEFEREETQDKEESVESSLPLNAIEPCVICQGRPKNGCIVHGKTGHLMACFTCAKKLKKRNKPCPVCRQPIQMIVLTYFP

Kd: 1.44 nM
Substance: Mdm2 (from UniProt Q00987)
